Results reported in the supplement of paper PMC11136658.

System: peptide library, one residue held at a place counted from the Y acceptor
Assay: relative phosphorylation of the sub-library (ratio to the mean residue at this position); higher = residue favoured
How it was run: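 Each value expresses phosphorylation relative to the mean randomized residue. Purified recombinant kinases acted for 90 min in 384-well plates on biotinylated Tyr-centred peptide library mixtures, with one residue fixed at one position from −5 to +5, in the presence of 50 μM ATP with γ-32P-ATP. Signals were read by phosphorimaging after capture on streptavidin membranes, then normalized per position to the sum of the 18 randomized residues (16 in the Ser/Thr-free library) and multiplied by that number.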

TYRO3, construct: aa455-end, human, sequence (Q06418 455-890, looked up): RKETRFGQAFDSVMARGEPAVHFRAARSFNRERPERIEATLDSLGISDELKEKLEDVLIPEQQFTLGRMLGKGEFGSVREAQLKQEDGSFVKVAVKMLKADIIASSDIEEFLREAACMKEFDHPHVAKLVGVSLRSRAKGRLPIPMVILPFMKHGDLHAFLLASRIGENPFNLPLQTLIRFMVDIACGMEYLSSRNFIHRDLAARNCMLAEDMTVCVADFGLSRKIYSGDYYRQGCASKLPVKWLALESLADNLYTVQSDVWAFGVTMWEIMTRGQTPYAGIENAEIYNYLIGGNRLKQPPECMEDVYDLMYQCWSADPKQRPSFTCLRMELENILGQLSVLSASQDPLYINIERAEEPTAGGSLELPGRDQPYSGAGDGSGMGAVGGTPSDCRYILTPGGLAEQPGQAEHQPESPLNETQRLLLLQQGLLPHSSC
YES1, construct: Full length, human, sequence (P07947 whole entry, looked up): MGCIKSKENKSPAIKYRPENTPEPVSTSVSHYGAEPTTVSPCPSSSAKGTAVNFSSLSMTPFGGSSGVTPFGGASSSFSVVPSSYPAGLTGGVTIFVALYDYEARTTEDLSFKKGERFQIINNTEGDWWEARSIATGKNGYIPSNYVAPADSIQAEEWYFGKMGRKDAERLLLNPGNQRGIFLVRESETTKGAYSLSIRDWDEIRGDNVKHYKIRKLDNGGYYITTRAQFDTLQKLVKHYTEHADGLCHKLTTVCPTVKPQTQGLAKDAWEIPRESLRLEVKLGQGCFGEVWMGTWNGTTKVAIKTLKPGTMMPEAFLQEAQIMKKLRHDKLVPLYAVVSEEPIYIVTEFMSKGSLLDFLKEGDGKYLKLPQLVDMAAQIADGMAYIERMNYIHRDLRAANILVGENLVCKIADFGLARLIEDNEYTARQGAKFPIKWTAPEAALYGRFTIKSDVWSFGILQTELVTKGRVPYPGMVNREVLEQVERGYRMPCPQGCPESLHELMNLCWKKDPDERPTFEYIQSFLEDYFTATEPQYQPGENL
WEE1, construct: aa215-end, human, sequence (P30291 215-646, looked up): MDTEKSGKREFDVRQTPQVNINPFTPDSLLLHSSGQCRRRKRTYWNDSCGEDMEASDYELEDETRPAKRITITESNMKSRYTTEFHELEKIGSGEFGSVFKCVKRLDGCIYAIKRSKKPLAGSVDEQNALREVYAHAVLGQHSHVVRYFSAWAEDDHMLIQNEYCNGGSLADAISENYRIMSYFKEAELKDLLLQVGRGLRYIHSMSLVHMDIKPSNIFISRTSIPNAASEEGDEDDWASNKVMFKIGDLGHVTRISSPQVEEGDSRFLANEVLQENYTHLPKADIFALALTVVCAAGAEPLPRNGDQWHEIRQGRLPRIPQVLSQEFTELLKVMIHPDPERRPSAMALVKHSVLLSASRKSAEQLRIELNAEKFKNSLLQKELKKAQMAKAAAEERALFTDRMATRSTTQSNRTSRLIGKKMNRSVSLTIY

TYRO3, construct: aa455-end, human (from UniProt Q06418)
relative phosphorylation
Conditions	at +1	at +2	at +3	at +4	at +5	at -1	at -2	at -3	at -4	at -5
A fixed	1.64	0.682	0.632	0.906	1.04	0.893	0.982	1	1.15	0.987
D fixed	0.676	0.549	0.322	0.681	0.669	0.66	0.935	1.1	1.03	1.01
E fixed	1.19	0.767	0.252	0.729	0.592	0.56	1.04	1.28	1.19	0.874
F fixed	1.07	1.28	1.44	1.11	0.885	1.23	0.653	0.819	0.883	0.866
G fixed	0.816	0.424	0.71	1.2	1.26	0.524	1.3	1.18	1.35	1.2
H fixed	1.12	0.864	1.36	1.16	0.955	1.4	1.09	1.09	0.966	1.05
I fixed	0.991	1.12	1.58	0.796	0.758	1.63	0.772	0.656	0.826	0.854
K fixed	0.534	1.1	1.03	1.18	1.39	0.719	1.14	0.998	1.04	1.16
L fixed	0.938	1.36	1.19	0.932	0.867	1.88	0.858	0.752	0.843	0.892
M fixed	1.26	1.22	1.18	1.04	0.868	1.09	0.7	0.866	0.864	0.964
N fixed	0.544	0.901	0.626	0.843	1.01	1.03	1.25	1.16	0.956	1.19
P fixed	0.412	0.657	0.864	1.18	1.62	0.821	1.09	1.27	1.3	1.19
Q fixed	1.13	0.962	0.795	1.07	0.936	0.837	1.23	1.06	1.22	1.06
R fixed	0.597	1.13	1.2	1.28	1.33	0.655	1.04	0.959	1.06	1.19
S fixed	1.25	0.799	0.718	1.01	1.06	0.849	1.28	1.2	0.866	0.977
T fixed	1.2	0.996	0.808	0.85	0.982	1.07	1.13	1.09	0.775	0.884
V fixed	1.37	1.21	1.26	0.876	0.831	1.16	0.868	0.755	0.803	0.785
W fixed	1.25	1.98	2.04	1.16	0.946	1	0.649	0.764	0.888	0.868
pThr fixed	1.04	0.889	0.217	0.396	0.43	0.664	0.826	0.977	0.895	0.854
pTyr fixed	0.911	1.28	0.324	0.56	0.399	1.06	0.954	1.2	1.12	0.96

WEE1, construct: aa215-end, human (from UniProt P30291)
relative phosphorylation
Conditions	at +1	at +2	at +3	at +4	at +5	at -1	at -2	at -3	at -4	at -5
A fixed	0.635	0.703	0.557	0.811	0.707	0.72	0.888	0.817	0.926	1.01
D fixed	0.354	0.437	0.425	0.604	0.562	0.619	0.593	0.846	0.849	0.957
E fixed	0.445	0.474	0.464	0.697	0.657	0.467	0.742	0.901	1.22	0.881
F fixed	0.997	1.33	0.969	0.816	0.746	2.25	0.867	1.26	1.13	1.14
G fixed	1.03	0.713	0.776	0.921	0.88	0.693	1.54	1.06	1.24	1.15
H fixed	0.739	0.685	0.93	0.927	1.05	1.04	0.85	0.748	0.809	0.762
I fixed	1	1.04	1.2	0.781	0.881	1.15	0.943	1.24	1.21	1.03
K fixed	1.44	1.9	2.15	2	1.9	0.93	1.04	1.1	0.986	1.1
L fixed	0.815	0.945	0.806	0.752	0.833	1.61	0.866	1.11	1.05	1.15
M fixed	0.892	1.03	0.922	1.11	0.9	1.2	0.741	1.06	0.977	1.01
N fixed	0.952	0.875	0.74	0.762	0.89	1.45	1	0.817	0.747	0.872
P fixed	0.598	0.573	0.636	0.758	0.755	0.753	0.84	1	0.995	0.956
Q fixed	0.913	0.856	0.772	0.98	0.804	0.564	0.733	0.691	0.945	0.88
R fixed	4.18	2.37	3.44	2.25	2.98	0.975	1.54	1.21	1.47	1.15
V fixed	0.819	0.941	0.93	0.751	0.675	1.11	0.924	1.12	0.907	1.02
W fixed	0.904	1.37	0.896	1.23	0.812	1.17	0.897	1.22	1.18	1.37
pThr fixed	0.975	0.775	0.584	0.671	0.815	0.866	1.12	1.3	0.896	1.06
pTyr fixed	1.06	1.05	0.703	0.834	0.882	7.21	1.38	1.76	1.33	1.25

YES1, construct: Full length, human (from UniProt P07947)
relative phosphorylation
Conditions	at +1	at +2	at +3	at +4	at +5	at -1	at -2	at -3	at -4	at -5
A fixed	1.59	1.07	0.621	0.835	0.959	0.583	0.987	0.821	0.944	0.967
D fixed	0.822	0.636	0.492	0.759	0.76	0.641	1.35	1.7	1.42	1.35
E fixed	1.32	1.28	0.546	0.885	0.867	0.819	1.41	2.16	1.57	1.1
F fixed	0.723	1.08	2.83	1.24	1.13	0.652	0.57	0.794	0.731	0.861
G fixed	2.83	0.751	0.668	1.01	0.957	0.569	1.11	1.04	1.25	1.03
H fixed	0.8	0.71	1	1.12	1.07	0.733	1.27	1.03	1.02	1.02
I fixed	0.589	1.15	1.52	0.814	0.675	3.12	0.56	0.559	0.75	0.675
K fixed	0.418	0.721	0.552	1.06	1.19	0.468	0.873	0.697	0.989	1.23
L fixed	0.596	1.08	1.46	0.866	0.841	1.71	0.679	0.66	0.951	0.719
M fixed	1.11	1.19	1.01	1.29	0.932	0.974	0.727	0.74	0.952	0.834
N fixed	0.644	0.791	0.657	0.899	1.09	0.463	1.4	1.39	1.01	1.35
P fixed	0.462	0.724	0.518	0.785	1.37	1.3	1.31	1.02	1.12	1.22
Q fixed	0.897	1	0.599	1.17	1.01	0.521	1.18	1.15	1.09	1.1
R fixed	0.538	0.951	0.913	1.36	1.51	0.399	0.95	0.76	1.01	1.16
S fixed	1.13	1.3	0.672	0.938	1.07	0.518	1.31	1.08	0.846	0.949
T fixed	1.08	1.44	0.908	1.01	1	1.51	0.968	0.862	0.727	0.908
V fixed	0.892	1.3	1.37	0.842	0.749	2.26	0.663	0.558	0.857	0.783
W fixed	1.54	0.815	1.67	1.11	0.821	0.766	0.69	0.979	0.762	0.755
pThr fixed	1.21	1.33	0.497	0.667	0.674	1.07	1.1	1.13	1.07	1.17
pTyr fixed	2.21	1.24	0.636	0.841	0.739	0.806	1.21	1.18	1.27	1.2
